B1: Hammerhead Ribozyme (parent)
chain: ACCGGAUGUGCUUUCCGGUCUGAUGAGUCCGUGAGGACGAAACAG

114 variants from the RNAGym collection of RNA variant scans (doi:10.7554/elife.80360) can be followed below.

Variants of B1 are the subject of this data set. Put plainly: self-cleavage, relative activity (ratio to wild type); higher = more cleavage; co-transcriptional.
Take AUCGGAUGUGCUUUCCGGUCUGAUGAGUCCGUGAGGACGCAACAG: the self-cleavage is 0.51.

In the case of AUCGGAUGUGCUUUCCGGUCUGAUGAGUCCGUGAGGACGGAACAG, the self-cleavage stood at 0.284. With AUCGGAUGUGCUUUCCGGUCUGAUGAGUCCGUGAGGACGUAACAG, the self-cleavage is 0.346. For the variant AUCGGAUGUGCUUUCCGGUCUGAUGAGUCCGUGAGGACGAACCAG, the self-cleavage was found to be 0.358. As for AUCGGAUGUGCUUUCCGGUCUGAUGAGUCCGUGAGGACGAAGCAG, the self-cleavage was 0.467. As for AUCGGAUGUGCUUUCCGGUCUGAUGAGUCCGUGAGGACGAAUCAG, the figure is 0.301. For AUCGAAUGUGCUUUCCGGUCUGAUGAGUCCGUGAGGACGAAACAG the value was 0.633; for AUCGUAUGUGCUUUCCGGUCUGAUGAGUCCGUGAGGACGAAACAG, 0.535; for AUCGCAUGUGCUUUCCGGUCUGAUGAGUCCGUGAGGACGAAACAG, 0.364. For AUCGGAUGUGCUUUCCGGUCUGAUGAGGCCGUGAGGACGAAACAG the value was 0.7; for AUCGGAUGUGCUUUCCGGUCUGAUGAGCCCGUGAGGACGAAACAG, 0.79. Take AUCGGAUGUGCUUUCCGGUCUGAUGAGACCGUGAGGACGAAACAG: the self-cleavage was 0.445. As for AUCGGAUGUGCUUUCCGGUCUGAUGAGUCCGUGAGGACGAAAAAG, the figure is 0.361. As for AUCGGAUGUGCUUUCCGGUCUGAUGAGUCCGUGAGGACGAAAGAG, the figure is 0.372; as for AUCGGAUGUGCUUUCCGGUCUGAUGAGUCCGUGAGGACGAAAUAG, 0.441.

In the case of AUCGGAUGUGCUUUCCGGUCUGAUGAGUCCCUGAGGACGAAACAG, the self-cleavage is 0.974.

AUCGGAUGUGCUUUCCGGUCUGAUGAGUCCAUGAGGACGAAACAG: the self-cleavage amounted to 1.11.

In the case of AUCGGAUGUGCUUUCCGGUCUGAUGAGUCCUUGAGGACGAAACAG, the self-cleavage was found to be 1.12. As for AUCGGAUGUGCUUUCCGGACUGAUGAGUCCGUGAGGACGAAACAG, the figure is 0.365.

In the case of AUCGGAUGUGCUUUCCGGGCUGAUGAGUCCGUGAGGACGAAACAG, the self-cleavage amounted to 0.319. As for AUCGGAUGUGCUUUCCGGCCUGAUGAGUCCGUGAGGACGAAACAG, the figure is 0.531; as for AUCGGAUGUGCUUUCCGGUCUGAUGAGUCAGUGAGGACGAAACAG, 0.893; as for AUCGGAUGUGCUUUCCGGUCUGAUGAGUCUGUGAGGACGAAACAG, 1.04.

Turning to AUCGGAUGUGCUUUCCGGUCUGAUGAGUCGGUGAGGACGAAACAG, the self-cleavage was found to be 0.876. On to AUCGGAUGUGCUUUCCGGUCUGAUGAGUCCGAGAGGACGAAACAG, for which the self-cleavage was 0.97.

On to AUCGGAUGUGCUUUCCGGUCUGAUGAGUCCGCGAGGACGAAACAG, for which the self-cleavage was found to be 0.971.

Regarding AUCGGAUGUGCUUUCCGGUAUGAUGAGUCCGUGAGGACGAAACAG, the self-cleavage was 0.63. Consider AUCGGAUGUGCUUUCCGGUUUGAUGAGUCCGUGAGGACGAAACAG, for which the self-cleavage amounted to 0.797. As for AUCGGAUGUGCUUUCCGGUGUGAUGAGUCCGUGAGGACGAAACAG, the figure is 0.37; as for AUCGGAUGUGCUUUCCGGUCUGAUGAGUCCGUGAGGACUAAACAG, 0.359; as for AUCGGAUGUGCUUUCCGGUCUGAUGAGUCCGUGAGGACAAAACAG, 0.376. In the case of AUCGGAUGUGCUUUCCGGUCUGAUGAGUCCGUGAGGACCAAACAG, the self-cleavage worked out at 0.336. Turning to AUCGGAUGUGCUUACCGGUCUGAUGAGUCCGUGAGGACGAAACAG, the self-cleavage worked out at 0.8. As to AUCGGAUGUGCUUCCCGGUCUGAUGAGUCCGUGAGGACGAAACAG, the self-cleavage worked out at 0.474. For AUCGGAUGUGCUUGCCGGUCUGAUGAGUCCGUGAGGACGAAACAG the value was 1.11; for AUCGGAUGUGCUUUCCGGUCUGAUGAGUCCGUGAGCACGAAACAG, 0.371; for AUCGGAUGUGCUUUCCGGUCUGAUGAGUCCGUGAGUACGAAACAG, 0.488. AUCGGAUGUGCUUUCCGGUCUGAUGAGUCCGUGAGAACGAAACAG: the self-cleavage was found to be 0.698. For AUCAGAUGUGCUUUCCGGUCUGAUGAGUCCGUGAGGACGAAACAG the value was 0.361.

For AUCUGAUGUGCUUUCCGGUCUGAUGAGUCCGUGAGGACGAAACAG, the self-cleavage came out at 0.335. As for AUCCGAUGUGCUUUCCGGUCUGAUGAGUCCGUGAGGACGAAACAG, the figure is 0.397; as for AUCGGAUGUGCUUUCCGGUCUGAUAAGUCCGUGAGGACGAAACAG, 0.386; as for AUCGGAUGUGCUUUCCGGUCUGAUUAGUCCGUGAGGACGAAACAG, 0.28. As to AUCGGAUGUGCUUUCCGGUCUGAUCAGUCCGUGAGGACGAAACAG, the self-cleavage came out at 0.345.

As for AUCGGAUGUGCCUUCCGGUCUGAUGAGUCCGUGAGGACGAAACAG, the self-cleavage amounted to 1.06.

As to AUCGGAUGUGCGUUCCGGUCUGAUGAGUCCGUGAGGACGAAACAG, the self-cleavage is 1.21. As for AUCGGAUGUGCAUUCCGGUCUGAUGAGUCCGUGAGGACGAAACAG, the figure is 1.26; as for AUCGGAUGUACUUUCCGGUCUGAUGAGUCCGUGAGGACGAAACAG, 1.22. Regarding AUCGGAUGUCCUUUCCGGUCUGAUGAGUCCGUGAGGACGAAACAG, the self-cleavage worked out at 1.5.

In the case of AUCGGAUGUUCUUUCCGGUCUGAUGAGUCCGUGAGGACGAAACAG, the self-cleavage was determined as 1.39. As for AUCGGACGUGCUUUCCGGUCUGAUGAGUCCGUGAGGACGAAACAG, the figure is 0.541; as for AUCGGAGGUGCUUUCCGGUCUGAUGAGUCCGUGAGGACGAAACAG, 1.72; as for AUCGGAAGUGCUUUCCGGUCUGAUGAGUCCGUGAGGACGAAACAG, 1.58.

On to AUCGGAUGUGCUUUCCGGUCUGAUGAGUACGUGAGGACGAAACAG, for which the self-cleavage came out at 0.701.

As for AUCGGAUGUGCUUUCCGGUCUGAUGAGUGCGUGAGGACGAAACAG, the self-cleavage turned out to be 1.02. As for AUCGGAUGUGCUUUCCGGUCUGAUGAGUUCGUGAGGACGAAACAG, the figure is 1.29. As for AUCGGAUGUGCUUUCCGGUCUGAUGAGUCCGUGAGGACGAAACAA, the figure is 0.873; as for AUCGGAUGUGCUUUCCGGUCUGAUGAGUCCGUGAGGACGAAACAU, 0.835. Regarding AUCGGAUGUGCUUUCCGGUCUGAUGAGUCCGUGAGGACGAAACAC, the self-cleavage stood at 0.868. For AUCGGAUGUGCUUUCCGGUCUGAUGAGUCCGUGAGGACGAAACUG the value was 0.646; for AUCGGAUGUGCUUUCCGGUCUGAUGAGUCCGUGAGGACGAAACGG, 1.55. For AUCGGAUGUGCUUUCCGGUCUGAUGAGUCCGUGAGGACGAAACCG the value was 0.664. With AUCGGAUGUGCUUUCCGGUCUGAUGAGUCCGUCAGGACGAAACAG, the self-cleavage was 1.06. With AUCGGAUGUGCUUUCCGGUCUGAUGAGUCCGUUAGGACGAAACAG, the self-cleavage was found to be 1.17. In the case of AUCGGAUGUGCUUUCCGGUCUGAUGAGUCCGUAAGGACGAAACAG, the self-cleavage worked out at 1.14. As for AUCGGAUGUGCUUUCCGCUCUGAUGAGUCCGUGAGGACGAAACAG, the self-cleavage worked out at 0.869. For AUCGGAUGUGCUUUCCGAUCUGAUGAGUCCGUGAGGACGAAACAG the value was 1.19. Regarding AUCGGAUGUGCUUUCCGUUCUGAUGAGUCCGUGAGGACGAAACAG, the self-cleavage was determined as 1.16. As for AUCGGAUGUGCUGUCCGGUCUGAUGAGUCCGUGAGGACGAAACAG, the figure is 1.24; as for AUCGGAUGUGCUAUCCGGUCUGAUGAGUCCGUGAGGACGAAACAG, 1.52; as for AUCGGAUGUGCUCUCCGGUCUGAUGAGUCCGUGAGGACGAAACAG, 1.34. For AUCGGAUGUGCUUUCCAGUCUGAUGAGUCCGUGAGGACGAAACAG the value was 0.392; for AUCGGAUGUGCUUUCCCGUCUGAUGAGUCCGUGAGGACGAAACAG, 0.375. AUCGGAUGUGCUUUCCUGUCUGAUGAGUCCGUGAGGACGAAACAG: the self-cleavage was 0.409. For AUCGGAUGUGCUUUCCGGUCCGAUGAGUCCGUGAGGACGAAACAG the value was 0.273. As for AUCGGAUGUGCUUUCCGGUCAGAUGAGUCCGUGAGGACGAAACAG, the figure is 0.962; as for AUCGGAUGUGCUUUCCGGUCGGAUGAGUCCGUGAGGACGAAACAG, 0.742.

Regarding AUAGGAUGUGCUUUCCGGUCUGAUGAGUCCGUGAGGACGAAACAG, the self-cleavage stood at 0.417. As to AUGGGAUGUGCUUUCCGGUCUGAUGAGUCCGUGAGGACGAAACAG, the self-cleavage was 0.319. As for AUUGGAUGUGCUUUCCGGUCUGAUGAGUCCGUGAGGACGAAACAG, the figure is 0.588; as for AUCGGAUGUGGUUUCCGGUCUGAUGAGUCCGUGAGGACGAAACAG, 1.5. As for AUCGGAUGUGUUUUCCGGUCUGAUGAGUCCGUGAGGACGAAACAG, the figure is 0.739; as for AUCGGAUGUGAUUUCCGGUCUGAUGAGUCCGUGAGGACGAAACAG, 1.46. For AUCGGAUGUGCUUUGCGGUCUGAUGAGUCCGUGAGGACGAAACAG the value was 0.385; for AUCGGAUGUGCUUUACGGUCUGAUGAGUCCGUGAGGACGAAACAG, 0.397; for AUCGGAUGUGCUUUUCGGUCUGAUGAGUCCGUGAGGACGAAACAG, 0.76.

Turning to AUCGGAUGUGCUUUCCGGUCUGAUGAGUCCGUGAGGAUGAAACAG, the self-cleavage was found to be 1.21. Regarding AUCGGAUGUGCUUUCCGGUCUGAUGAGUCCGUGAGGAGGAAACAG, the self-cleavage is 0.976.

With AUCGGAUGUGCUUUCCGGUCUGAUGAGUCCGUGAGGAAGAAACAG, the self-cleavage came to 0.854.

Regarding AUCGGAUUUGCUUUCCGGUCUGAUGAGUCCGUGAGGACGAAACAG, the self-cleavage was 0.948. Consider AUCGGAUCUGCUUUCCGGUCUGAUGAGUCCGUGAGGACGAAACAG, for which the self-cleavage is 0.871.

Regarding AUCGGAUAUGCUUUCCGGUCUGAUGAGUCCGUGAGGACGAAACAG, the self-cleavage turned out to be 0.998.

On to AUCGGAUGUGCUUUCCGGUCUGACGAGUCCGUGAGGACGAAACAG, for which the self-cleavage is 1.35. As for AUCGGAUGUGCUUUCCGGUCUGAGGAGUCCGUGAGGACGAAACAG, the figure is 1.29; as for AUCGGAUGUGCUUUCCGGUCUGAAGAGUCCGUGAGGACGAAACAG, 1.05; as for AUCGGAUGUGCUUUCCGGUCUGAUGAGUCCGUGAGGACGAUACAG, 0.365. On to AUCGGAUGUGCUUUCCGGUCUGAUGAGUCCGUGAGGACGAGACAG, for which the self-cleavage is 0.389. As for AUCGGAUGUGCUUUCCGGUCUGAUGAGUCCGUGAGGACGACACAG, the figure is 0.35; as for AUCGGAUGUGCUUUCCGGUCUGAUGAGUCCGUGAGGUCGAAACAG, 0.849. As for AUCGGAUGUGCUUUCCGGUCUGAUGAGUCCGUGAAGACGAAACAG, the figure is 0.871; as for AUCGGAUGUGCUUUCCGGUCUGAUGAGUCCGUGAUGACGAAACAG, 0.757; as for AUCGGAUGUGCUUUCCGGUCUGAUGAGUCCGUGACGACGAAACAG, 0.647.

Take AUCGGAUGUGCUUUCCGGUCUCAUGAGUCCGUGAGGACGAAACAG: the self-cleavage amounted to 0.323. AUCGGAUGUGCUUUCCGGUCUAAUGAGUCCGUGAGGACGAAACAG: the self-cleavage amounted to 0.341. As to AUCGGAUGUGCUUUCCGGUCUUAUGAGUCCGUGAGGACGAAACAG, the self-cleavage was determined as 0.376. AUCGGAUGAGCUUUCCGGUCUGAUGAGUCCGUGAGGACGAAACAG: the self-cleavage amounted to 1.24. Regarding AUCGGAUGCGCUUUCCGGUCUGAUGAGUCCGUGAGGACGAAACAG, the self-cleavage worked out at 0.983.

With AUCGGAUGGGCUUUCCGGUCUGAUGAGUCCGUGAGGACGAAACAG, the self-cleavage is 0.659.

AUCGGAUGUGCUUUCUGGUCUGAUGAGUCCGUGAGGACGAAACAG: the self-cleavage came out at 1.07. As for AUCGGAUGUGCUUUCAGGUCUGAUGAGUCCGUGAGGACGAAACAG, the figure is 0.367; as for AUCGGAUGUGCUUUCGGGUCUGAUGAGUCCGUGAGGACGAAACAG, 0.356. For AUCGGAUGUGCUUUCCGGUCUGAUGACUCCGUGAGGACGAAACAG the value was 0.654. With AUCGGAUGUGCUUUCCGGUCUGAUGAAUCCGUGAGGACGAAACAG, the self-cleavage was found to be 1.06. For AUCGGAUGUGCUUUCCGGUCUGAUGAUUCCGUGAGGACGAAACAG the value was 0.568.
